According to publication PMC9792355:

Assays:
Test in all cases: luciferase complementation assay
[1] = molecular target: DomDIM1 SKAP1 mutant (DIM domain of SKAP1); conditions: HEK293T cells; read off a plot
[2] = molecular target: N2-SKAP2 DomDIM2 deletion mutant (DIM domain alone); conditions: HEK293T cells; read off a plot
[3] = molecular target: N1-fused SRC kinases (mean among the nine SRC kinases); conditions: HEK293T cells
[4] = molecular target: C1-fused SRC kinases (mean among the nine SRC kinases); conditions: HEK293T cells
[5] = molecular target: N2-SKAP2 (SRC kinase adaptor phosphoprotein 2, wildtype) (UniProt O75563); conditions: HEK293T cells, read off a plot

| Substance | response (NLR normalized to HCK-N1) [1] | response (NLR normalized to HCK-N1) [2] | ratio to parent [3] | ratio to parent [4] | also measured |
| --- | --- | --- | --- | --- | --- |
| N2-SKAP2 (SRC kinase adaptor phosphoprotein 2, wildtype) (from UniProt O75563) E15A; R18A; V24D; F27G; V28E | – | – | 0.41 | 0.48 | – |
| N2-SKAP2 (SRC kinase adaptor phosphoprotein 2, wildtype) (from UniProt O75563) Y151F; Y197F | – | – | 0.8 | 0.71 | – |
| C1-fused HCK (hematopoietic cell kinase), wildtype (from UniProt P08631-2) R150A | 2.9 | 8.4 | – | – | – |
| N2-SKAP2 (SRC kinase adaptor phosphoprotein 2, wildtype) (from UniProt O75563) Y75F; Y237F; Y261F | – | – | 0.76 | 1.01 | – |
| N1-fused HCK (hematopoietic cell kinase), wildtype (from UniProt P08631-2) Y30F | 0.9 | 1.2 | – | – | – |
| N1-fused HCK (hematopoietic cell kinase), wildtype (from UniProt P08631-2) Y390F | 0.7 | – | – | – | – |
| C1-fused HCK (hematopoietic cell kinase), wildtype (from UniProt P08631-2) Y501F | 3.8 | 7.7 | – | – | – |
| C1-fused HCK (hematopoietic cell kinase), wildtype (from UniProt P08631-2) I309A; T311A | 0.07 | 0.29 | – | – | response (normalized NLR) ([5]; parent: est. 85): 16; response (NLR normalized to HCK-N1) [5]: 0.1 |
| N2-SKAP2 (SRC kinase adaptor phosphoprotein 2, wildtype) (from UniProt O75563) E15A; R18A | – | – | 1.3 | 1.19 | – |
| N1-fused HCK (hematopoietic cell kinase), wildtype (from UniProt P08631-2) W234A | – | 0.6 | – | – | – |
| N2-SKAP2 (SRC kinase adaptor phosphoprotein 2, wildtype) (from UniProt O75563) V24D; F27G; V28E | – | – | 0.43 | 0.41 | – |

Now from value to substance, other results behind:

| response (NLR normalized to HCK-N1) [1] | response (NLR normalized to HCK-N1) [2] | ratio to parent [3] | ratio to parent [4] | Substance | also measured |
| --- | --- | --- | --- | --- | --- |
| 8.4 | 7.7 | – | – | N1-fused HCK (hematopoietic cell kinase), wildtype (from UniProt P08631-2) R150A | – |
| 0.055 | 0.13 | – | – | C1-fused HCK (hematopoietic cell kinase), wildtype (from UniProt P08631-2) Y30F | – |
| – | – | 0.88 | 1.63 | N2-SKAP2 (SRC kinase adaptor phosphoprotein 2, wildtype) (from UniProt O75563) D129K; Y75F; Y237F; Y261F | – |
| – | – | 1.55 | 2.27 | N2-SKAP2 (SRC kinase adaptor phosphoprotein 2, wildtype) (from UniProt O75563) D129K | – |
| 7 | 6.4 | – | – | N1-fused HCK (hematopoietic cell kinase), wildtype (from UniProt P08631-2) Y501F | – |
| 0.65 | 0.9 | – | – | N1-fused HCK (hematopoietic cell kinase), wildtype (from UniProt P08631-2) I309A; T311A | response (NLR normalized to HCK-N1) [5]: 1 |
| – | – | 0.84 | 0.86 | N2-SKAP2 (SRC kinase adaptor phosphoprotein 2, wildtype) (from UniProt O75563) R140M; D129K | – |
| – | – | 1.12 | 0.9 | N2-SKAP2 (SRC kinase adaptor phosphoprotein 2, wildtype) (from UniProt O75563) K161E | – |
| – | – | 0.96 | 0.79 | N2-SKAP2 (SRC kinase adaptor phosphoprotein 2, wildtype) (from UniProt O75563) R140M | – |
| – | – | 1.64 | 1.48 | N2-SKAP2 (SRC kinase adaptor phosphoprotein 2, wildtype) (from UniProt O75563) W336K | – |
| – | – | 0.93 | 1.04 | N2-SKAP2 (SRC kinase adaptor phosphoprotein 2, wildtype) (from UniProt O75563) V24D; F27G; V28E; D129K | – |
| 0.42 | 3.8 | – | – | C1-fused HCK (hematopoietic cell kinase), wildtype (from UniProt P08631-2) Y390F | – |
